The values below come from patent US20240239878A1 (SHANGHAI QILU PHARMACEUTICAL RESEARCH AND DEVELOPMENT CENTRE, published 2024).

The target of assay [1] is T1, human DLL1 (Sino Biological, Cat. No. 11635-H08H) (human, UniProt O00548 18-545).
T1 construct: also called family protein DLL1
T1 sequence: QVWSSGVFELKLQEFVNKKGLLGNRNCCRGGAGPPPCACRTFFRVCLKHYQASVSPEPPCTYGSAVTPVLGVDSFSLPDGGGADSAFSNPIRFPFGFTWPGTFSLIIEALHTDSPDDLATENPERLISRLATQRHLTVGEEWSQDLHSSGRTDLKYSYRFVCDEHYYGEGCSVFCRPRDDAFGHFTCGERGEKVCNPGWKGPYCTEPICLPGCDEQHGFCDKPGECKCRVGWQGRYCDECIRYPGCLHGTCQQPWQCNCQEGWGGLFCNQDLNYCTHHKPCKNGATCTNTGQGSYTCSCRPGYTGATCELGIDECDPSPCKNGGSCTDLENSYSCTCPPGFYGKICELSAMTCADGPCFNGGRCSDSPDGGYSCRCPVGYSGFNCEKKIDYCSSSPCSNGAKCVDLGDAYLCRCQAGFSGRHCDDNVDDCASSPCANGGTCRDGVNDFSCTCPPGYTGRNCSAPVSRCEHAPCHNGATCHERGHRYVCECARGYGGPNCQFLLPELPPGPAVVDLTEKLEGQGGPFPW
Nature of the assay: ELISA, plate coated with human DLL1 at 1 ug/mL, OD 450nm. Here is the method: The antigenic proteins human DLL1 (SinoBiological, cat. No. 11635-H08H) or human DLL4 (SinoBiological, cat. No. 10171-H08H) were dissolved in 1×PBS at a concentration of 1 μg/mL. […] The antigen was washed three times with PBST, 300 μL/well. The antigen was blocked with 1% BSA (in PBST), 200 µL/well, and incubated at 37° C. for 1.5 hours.
Antibodies to be tested were diluted with 1% BSA (in PBS) at a starting concentration of 100 nM, downwards by a 10-fold gradient for 7 concentrations. The plates were washed three times with PBST, 300 μL/well. The diluted antibody was added to an ELISA plate at 100 μL/well and incubated at room temperature for 2 hours. The antibodies were washed three times with PBST, 300 μL/well. The secondary antibodies (goat anti-human IgG Fc for DLL4 (HRP), 1:20000 dilution; HRP goat anti-mouse IgG (H+L) for DLL1, 1:10000 dilution) were diluted with 1% BSA in PBST. The diluted secondary antibodies were added to the ELISA plate at 100 μL/well and incubated at room temperature for 1 hour. The plates were washed 6 times with PBST, 300 μL/well. The developing solution (TMA and TMB 1:1 mixed) was prepared. The developing solution was added to the plate, 100 μL/well, and incubated in the dark for 5 min. 50 μL of ELISA stop solution was added to the plate and shaken well.
Background: In an ELISA, binding on a coated surface is turned into a signal by an enzyme label.

The target of assay [2] is T2, human DLL3 antigen protein (Kactus Biosystems, Cat. No. DLL-HM103) (human, UniProt Q9NYJ7 27-492).
T2 sequence: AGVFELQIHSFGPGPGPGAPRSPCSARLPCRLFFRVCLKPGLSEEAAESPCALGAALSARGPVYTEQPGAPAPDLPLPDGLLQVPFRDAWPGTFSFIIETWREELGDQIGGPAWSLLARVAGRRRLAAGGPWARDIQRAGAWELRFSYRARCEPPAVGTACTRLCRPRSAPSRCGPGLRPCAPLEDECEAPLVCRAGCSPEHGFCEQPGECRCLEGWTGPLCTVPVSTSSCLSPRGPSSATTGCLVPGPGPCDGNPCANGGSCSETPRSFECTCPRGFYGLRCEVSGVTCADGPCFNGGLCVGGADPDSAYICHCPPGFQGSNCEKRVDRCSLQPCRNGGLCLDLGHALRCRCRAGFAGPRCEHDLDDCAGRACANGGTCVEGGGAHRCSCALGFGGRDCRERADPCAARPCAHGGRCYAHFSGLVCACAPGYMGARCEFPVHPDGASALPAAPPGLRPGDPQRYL
In words: SPR (Biacore 8K), antibody captured on anti-human Fc, DLL3 in solution. Here is the method: The affinity and kinetic properties of the humanized anti-DLL3 antibody to human DLL3 were analyzed using a Biacore 8K instrument. CM5 chips were activated with EDC and NHS, followed by immobilization of anti-human Fc murine mAb and blocked with ethanolamine.
Human DLL3 was diluted two-fold serially to serial concentrations (100 nM-0.39 nM) and associated for 90 s and dissociated for 600 s at a flow rate of 50 μL/min.
After completion of each round of the experiment, the captured antibody was removed together with the antigen by washing with a 3M MgCl₂ solution at a flow rate of 30 μL/min for 30 s to complete the regeneration of the chip. The raw data were analyzed using Biacore Insight Evaluation Software (3.0.12.15655) software and fitted with a (1:1) Langmuir model with.
On the technique in general: In SPR one partner is held on a chip, and binding of the other changes the refractive index at the surface.

Assay [3] has as its target T2, human DLL3 antigen protein (Kactus …). Nature of the assay: affinity assay with human DLL3 antigen protein (kinetics; method not restated, Biacore as in Example 10 implied).

B1: H2-39E2D11 mouse hybridoma-derived humanized anti-DLL3 antibody (antibody, V domains shown)
VH: QVQLVQSGAEVKKPGASVKVSCKASGYTFISYWITWVRQAPGQGLEWMGDIYPGSGSTTNYNEKFKSRVTMTRDTSTSTVYMELSSLRSEDTAVYYCARETTVGGAYAMDYWGQGTLVTVSS
VL: EIVLTQSPATLSLSPGERATLSCRASQSINNNLHWYQQKPGQAPRLLIKYVSQSISGIPARFSGSGSGTDFTLTISSLEPEDFAVYYCQQTNSWPLTFGGGTKLEIK
Consider B1, for which, in assay [1], the binding result is “no binding (tested: 100 nM)”. In assay [2], the Kd – broadly, the concentration at which binding is half-saturated – came to 576 pM; the koff (usually the rate constant with which the complex falls apart) is 0.00018 s⁻¹; the association rate constant (kon) (commonly the rate constant with which the complex forms) came to 313000 M⁻¹ s⁻¹.

B2: hDLL3-3-1 camelid-derived humanized anti-DLL3 antibody (antibody, human IgG1, V domains shown)
VH: EVQLVESGGGLVQPGGSLRLSCAASTYTISSGYMGWFRQAPGKEREGVAAIYIGGSTTLYADSVKGRFTISRDNSKNTLYLQMNSLRAEDTAVYYCAAQLRPNSAYHPLDGRKYNYWGQGTLVTVSS
In assay [3], B2 showed a Kd of 450 pM, a koff of 0.000614 s⁻¹ and a kon of 1.36e+06 M⁻¹ s⁻¹.
